From patent US20230085439A1 come the findings set out here.

Experiment [1] concerns the target hMPV B2 F (human metapneumovirus).
Experiment [2] has the same target. Kind of experiment: BLI, Fab in solution, His-tagged hMPV B2 F on anti-penta-HIS sensors.
In experiment [3] the target is hMPV 130-BV (human metapneumovirus). Kind of experiment: BLI, Fab in solution, hMPV 130-BV on anti-penta-HIS sensors. (In general: In BLI a coated tip is dipped into the sample, and binding shifts an interference pattern.)
Experiment [4] has the same target. Kind of experiment: biolayer interferometry, hMPV 130-BV on anti-penta-HIS biosensors; unit inferred.

B1: MPV196 Fab (Fab, V domains shown)
VH: QVQLQQWGAGLLKPSETLSLTCAVYGGSFSGYSWTWIRQPPGKGLEWIGEINHSGSTNYNPSLKSRVTISIDTSRNQFSLKLISVTAADTAVYYCARGVRGGYNLWHFDVWGQGTLVTVSS
VL: SYELSQSPSVSVSPGQTARITCSGDKLGNKYASWYQQKPGQSPVLVIYQDDKRPSGIPERFSGSNSGNTATLTIGGTQAMDEADYSCQAWDGRTAVVFGGGTKLTVL
Regarding B1, in experiment [1], the dissociation constant Kd (usually a measure of binding affinity in units of concentration) was 7.3 nM; the koff – broadly, the rate constant with which the complex falls apart – worked out at 0.003 s⁻¹; the kon – broadly, the second-order rate constant of association – came to 410000 M⁻¹ s⁻¹.

B2: MPV364 Fab (Fab, V domains shown)
VH: QVQLVQSGAEVKKPGASVKVSCKASGYTFTHDSIHWVRQAPGQRLEWMGWINVGNGDTKSSQKFQDRLTITRDTSANTAYMEVRSLKYEDTAMYFCARVDQYCIGGVCYGGKNWFDPWGQGTLVTVSS
VL: SYELNQPPSVSVAPGQTAMITCGGYYVGVKSLHWYQQKAGQAPVLVVHDDSDRPSGIPERFSGSKSGDTATLIISRVEAGDEADYYCQVWDRDSDHPYVFGTGTTVTVL
In experiment [1], B2 had a Kd of 70 nM, a koff of 0.0038 s⁻¹ and an on-rate constant (kon) of 61000 M⁻¹ s⁻¹. Moreover, the fold KD against MPV196 and MPV314 in experiment [2] is 10 fold.

B3: MPV458 Fab (Fab, V domains shown)
VH: QGKLVESGGGVIQPGRSLRLSCAASGFDFSRYGLHWVRQAPGKGLEWVAVIVYAGSNKYYADSVKGRFTISKDNSKNTMHLQMSDLRTEDTAVYYCARDQAFDLWGQGTMVTVSS
VL: DIQMTQSPASLSASVGDRVTITCQASQGISRSVNWYQQKPGKAPKLLIFDASHLERGVPSRFSGSGYGTDFTFTISSLQPEDIATYYCQQYDNLRISFGQGTRLEIK
With B3, the KD difference in logs against 101F Fab in experiment [3] amounted to 3 logs. This molecule also displayed an equilibrium dissociation constant (Kd) in experiment [4] of 0.075 nM.

B4: MPV314 Fab (Fab, V domains shown)
VH: QVQLVQSGGGVVQPGRSLRLSCAASGFSFSDYGMDWVRQAPGKGLEWVAVISYDGSNQYYADSVKGRFTVSRDNSKNTVYLQMNSLRAEDTAVYFCAKDESRRYYYSSGIHSHWGQGTLVTVSS
VL: DIVMTQSPATLSVSPGERATLSCRASQSVSRNLAWYQQKPGQAPRLLIFGASTRATGIPARFSGSASGTEFTLTISSLQSEDFAVYYCHQYNYWPPGTFGQGTRLEIK
In experiment [1], B4 returned a Kd of 4.4 nM, a koff of 0.0027 s⁻¹ and a kon of 630000 M⁻¹ s⁻¹.
